In article PMC4824076, “Integrated microfluidic approach for quantitative high-throughput measurements of transcription factor binding affinities”:
Numbering of substitutions follows the chain as printed.

Columns and labels:
[1] = molecular target: c-Jun;c-Fos (;) (UniProt P05412+P01100); experiment: MITOMI (QPID); conditions: QPID microfluidic MITOMI; 1 h incubation of in vitro expressed extract (about 25 ul, 50 ng protein) with spotted Cy5-dsDNA (0.0156-2 uM spotting dilutions, PEG …)
[2] = molecular target: c-Jun (UniProt P05412); experiment: MITOMI (QPID); conditions: QPID microfluidic MITOMI; 1 h incubation of in vitro expressed extract (about 25 ul, 50 ng protein) with spotted Cy5-dsDNA (0.0156-2 uM spotting dilutions, PEG …)
Sequence of c-Jun (UniProt P05412) (P05412 252-315): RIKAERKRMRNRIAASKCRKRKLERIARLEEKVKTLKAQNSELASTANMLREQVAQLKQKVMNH

[3] = molecular target: c-Fos (Homo sapiens, UniProt P01100); experiment: MITOMI-type chip (QPID); rabbit reticulocyte lysate, 1 h; wash 50 mM HEPES; temperature not stated; DNA spotted at 0.0156-2 uM; conditions: tags: N-cMyc, C-His6 (kept); label: Cy5 on the primer strand
Sequence of c-Fos (P01100 whole entry): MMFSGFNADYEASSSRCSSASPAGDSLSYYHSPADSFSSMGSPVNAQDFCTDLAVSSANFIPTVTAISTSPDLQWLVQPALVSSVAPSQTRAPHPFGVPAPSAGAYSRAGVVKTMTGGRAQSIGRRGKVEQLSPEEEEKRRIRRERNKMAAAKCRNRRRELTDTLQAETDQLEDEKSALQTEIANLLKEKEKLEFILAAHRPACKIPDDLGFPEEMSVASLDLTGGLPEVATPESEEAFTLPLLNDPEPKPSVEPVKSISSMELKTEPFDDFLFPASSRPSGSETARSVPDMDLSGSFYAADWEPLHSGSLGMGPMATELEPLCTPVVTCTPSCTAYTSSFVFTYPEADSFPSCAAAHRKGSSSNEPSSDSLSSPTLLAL

[4] = molecular target: T1, ATF1 (Homo sapiens, UniProt P18846); experiment: as above; conditions: tags: N-cMyc, C-His6 (kept); chain copies: 2; label: Cy5 on the primer strand
T1 sequence: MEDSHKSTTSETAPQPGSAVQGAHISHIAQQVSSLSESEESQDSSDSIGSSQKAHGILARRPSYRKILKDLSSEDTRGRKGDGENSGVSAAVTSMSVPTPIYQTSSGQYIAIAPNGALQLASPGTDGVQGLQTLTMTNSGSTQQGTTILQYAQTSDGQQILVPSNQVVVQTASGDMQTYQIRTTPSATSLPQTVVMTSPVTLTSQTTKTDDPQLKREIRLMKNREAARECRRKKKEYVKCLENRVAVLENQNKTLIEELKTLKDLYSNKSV

[5] = molecular target: c-Fos/c-Jun (Homo sapiens, UniProt P01100;P05412 full;full); experiment: as above; conditions: tags: c-Fos N-cMyc, C-His6; c-Jun HA and V5 at the termini (kept); copies: 1;1; label: Cy5 on the primer strand
Sequence of c-Fos/c-Jun (P01100 whole entry, chain 1 of 2): as the sequence (P01100 whole entry) above
Sequence of c-Fos/c-Jun (P05412 whole entry, chain 2 of 2): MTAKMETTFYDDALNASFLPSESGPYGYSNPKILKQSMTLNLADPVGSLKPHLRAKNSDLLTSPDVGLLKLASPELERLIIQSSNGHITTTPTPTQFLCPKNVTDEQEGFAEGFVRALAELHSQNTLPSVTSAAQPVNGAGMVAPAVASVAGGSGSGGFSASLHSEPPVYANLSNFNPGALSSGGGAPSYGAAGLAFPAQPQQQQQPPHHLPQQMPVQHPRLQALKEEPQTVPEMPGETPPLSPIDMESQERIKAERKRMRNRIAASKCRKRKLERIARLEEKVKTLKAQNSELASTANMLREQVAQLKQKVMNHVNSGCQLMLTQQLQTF

[6] = molecular target: c-Jun (Homo sapiens, UniProt P05412); experiment: as above; conditions: tags: N-cMyc, C-His6 (kept); chain copies: 2; label: Cy5 on the primer strand
Sequence of c-Jun (Homo sapiens, UniProt P05412) (P05412 whole entry): as the sequence (P05412 whole entry, chain 2 of 2) above

Sequence of c-Jun;c-Fos (;) (P05412 252-315, chain 1 of 2): as the sequence (P05412 252-315) above
Sequence of c-Jun;c-Fos (;) (P01100 137-200, chain 2 of 2): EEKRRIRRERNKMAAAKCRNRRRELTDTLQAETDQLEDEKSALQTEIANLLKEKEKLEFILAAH

In the case of “GGCCACTACCGCTTCCTCCACATGACGTCATGGTTTTCTCCACCAAGGAAGT (double strand) [oligo 1 (CRE)]”, the Kd [1] is reported as 190 nM and the Kd [2] is reported as 1300 nM.

Molecule “TTATCCACTTGCGCTCGCCGAGTGGCGTCACCAGCGGTACTGTAATGACGAT (double strand) [oligo 6 (CRE half-site)]” has a Kd [1] of 4000 nM.

“GGCCACTACCGCTTCCTCCACATGGCGTCATGGTTTTCTCCACCAAGGAAGT (double strand) [oligo 5 (CRE half-site)]” gave a Kd [1] of 3500 nM.

“TTATGACCTGGGAGTGACGTCATGGAATCCACAGA (double strand) [oligo 2 (CRE)]” showed a Kd [1] of 150 nM and a Kd [2] of 2400 nM.

“TTATGACCTGGGAGTGAGTCAATGGAATCCACAGA (double strand) [oligo 4 (AP-1)]” showed a Kd [1] of 500 nM.

“GGCCACTACCGCTTCCTCCACATGAGTCATGGTTTTCTCCACCAAGGAAGT (double strand) [oligo 3 (AP-1)]” gave a Kd [1] of 270 nM and a Kd [2] of 2500 nM.

B1: oligo 6 (HS) (dsDNA)
DNA 1: TTATCCACTTGCGCTCGCCGAGTGGCGTCACCAGCGGTACTGTAATGACGAT
DNA 2: ATCGTCATTACAGTACCGCTGGTGACGCCACTCGGCGAGCGCAAGTGGATAA
For B1, the Kd [3] was > 2000 nM, the Kd [4] was 40 nM and the Kd [5] was ~4000 nM.

B2: oligo 2 (CRE) (dsDNA)
DNA 1: TTATGACCTGGGAGTGACGTCATGGAATCCACAGA
DNA 2: TCTGTGGATTCCATGACGTCACTCCCAGGTCATAA
In the case of B2, the Kd [6] is reported as ~2400 nM, the Kd [3] is reported as > 2000 nM and the Kd [4] is reported as 30 nM. The Kd [5] was 150 nM.

B3: oligo 4 (AP-1) (dsDNA)
DNA 1: B2 DNA 1 with C18G, G19T, T20C, C21A
DNA 2: B2 DNA 2 with G15T, A16G, C17A, G18C
In the case of B3, the Kd [3] is reported as > 2000 nM, the Kd [4] is reported as ~17000 nM and the Kd [5] is reported as 500 nM.

B4: oligo 7 (Mutant) (dsDNA)
DNA 1: GGCCACTACCGCTTCCTCCACAAATAAAATTGGTTTTCTCCACCAAGGAAGT
DNA 2: ACTTCCTTGGTGGAGAAAACCAATTTTATTTGTGGAGGAAGCGGTAGTGGCC
With B4 the Kd [3] was > 2000 nM and the Kd [4] was > 2000 nM.

B5: oligo 1 (CRE) (dsDNA)
DNA 1: GGCCACTACCGCTTCCTCCACATGACGTCATGGTTTTCTCCACCAAGGAAGT
DNA 2: ACTTCCTTGGTGGAGAAAACCATGACGTCATGTGGAGGAAGCGGTAGTGGCC
With B5 the Kd [6] was 1300 nM, the Kd [3] was > 2000 nM and the Kd [4] was 40 nM. It also gave a Kd [5] of 190 nM.

B6: oligo 5 (HS) (dsDNA)
DNA 1: B5 DNA 1 with A25G
DNA 2: B5 DNA 2 with T28C
B6 was tested, and the Kd [3] was > 2000 nM, the Kd [4] was 170 nM and the Kd [5] was ~3500 nM.

B7: oligo 3 (AP-1) (dsDNA)
DNA 1: GGCCACTACCGCTTCCTCCACATGAGTCATGGTTTTCTCCACCAAGGAAGT
DNA 2: ACTTCCTTGGTGGAGAAAACCATGACTCATGTGGAGGAAGCGGTAGTGGCC
In the case of B7, the Kd [6] is reported as ~2500 nM, the Kd [3] is reported as > 2000 nM and the Kd [4] is reported as ~11000 nM. The Kd [5] was 270 nM.
